The target of one assay is T1, monomeric Aβ40 (UniProt P05067 672-711).
T1 construct: domain: Aβ(1-40); Immobilized on a CM5 chip by amine coupling for SPR; also called Aβ(1-40); amyloid beta
The experiment in a line: SPR (BIAcore 3000), Aβ immobilized on a CM5 chip, CypD in the mobile phase, 25° C.; monomeric Aβ40. As for the experimental part:
(§1) Aβ(1-40) and Aβ(1-42), including monomeric and oligomeric Aβ, were used in the binding assay. The kinetic parameters evaluating binding affinity were analyzed as described in the Examples. […] The evaluating curves (red line) were overlaid with experimental data.
(§2) The monomeric and oligomeric Aβ were prepared as described and characterized by atomic force microscopy. SPR studies were performed on a BIAcore 3000 system (BIAcore AB, Uppsala, Sweden). Aβ (500 μg/ml) was immobilized using the standard amino coupling on a research-grade CM5 sensor chip. […] The binding curves were analyzed with the global fitting model using BIA evaluation version 4.0.1 (BIAcore AB).
In general terms: SPR reads the build-up and loss of mass on a sensor chip optically.

A further assay addresses T2, monomeric Aβ42 (UniProt P05067 672-713).
T2 construct: domain: Aβ(1-42); Immobilized on a CM5 chip by amine coupling for SPR; also called Aβ(1-42); amyloid beta
Briefly: SPR (BIAcore 3000), Aβ immobilized on a CM5 chip, CypD in the mobile phase, 25° C.; monomeric Aβ42. On the procedure:
as §1, §2

For a further assay, the target named is T3, oligomeric Aβ40 (UniProt P05067 672-711).
T3 construct: domain: Aβ(1-40); Oligomer; Immobilized on a CM5 chip for SPR; also called Aβ(1-40); amyloid beta
T3 sequence (P05067 672-711 limits assumed): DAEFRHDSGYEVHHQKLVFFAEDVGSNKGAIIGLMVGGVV
Briefly: SPR (BIAcore 3000), Aβ immobilized on a CM5 chip, CypD in the mobile phase, 25° C.; oligomeric Aβ40. As for the experimental part:
as §1, §2

Another assay deals with T4, oligomeric Aβ42 (UniProt P05067 672-713).
T4 construct: domain: Aβ(1-42); Oligomer; Immobilized on a CM5 chip for SPR; also called Aβ(1-42); amyloid beta
T4 sequence (P05067 672-713 limits assumed): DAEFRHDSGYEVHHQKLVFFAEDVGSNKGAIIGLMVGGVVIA
The experiment in a line: SPR (BIAcore 3000), Aβ immobilized on a CM5 chip, CypD in the mobile phase, 25° C.; oligomeric Aβ42. As for the experimental part: as §1, §2

The results in this text go back to patent publication US20100291074A1 (COLUMBIA UNIVERSITY IN THE CITY OF NEW YORK, published 2010).

As usually defined, the Kd is the equilibrium constant for the complex coming apart.

T1 sequence (P05067 672-711 limits assumed): as the sequence (P05067 672-711 limits assumed) above
T2 sequence (P05067 672-713 limits assumed): as the sequence (P05067 672-713 limits assumed) above

B1: purified recombinant human CypD protein (Cyclophilin D) (enzyme)
chain: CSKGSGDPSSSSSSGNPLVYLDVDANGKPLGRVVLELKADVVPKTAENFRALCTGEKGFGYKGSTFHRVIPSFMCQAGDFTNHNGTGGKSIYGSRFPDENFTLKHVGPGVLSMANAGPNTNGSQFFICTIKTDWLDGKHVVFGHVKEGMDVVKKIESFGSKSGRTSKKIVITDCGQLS
notes: also called human mitochondrial CypD protein; PPIF
Turning to B1, the Kd with monomeric Aβ40 turned out to be 1700 nM; in the assay with monomeric Aβ42, 164 nM; in the assay with oligomeric Aβ40, 227 nM; in the assay with oligomeric Aβ42, 4 nM.
